Data: paper PMC5006590

test: pseudovirus neutralisation, TZM-bl; settings: glycan lost; control: wild type

Substance | other: neutralisation sensitivity, other: ID50 (reciprocal plasma dilution)
HIV-1 25711-2.4 Env: N160A | no change, 1484.35 vs 1822.04
HIV-1 25711-2.4 Env: N301A | decreases, 749.81 vs 1822.04
HIV-1 25711-2.4 Env: N332A | decreases, 357.36 vs 1822.04
HIV-1 CAP239.G3 Env: N160A | increases, 4184.00 vs 1096.00, Fold decrease in ID50 0.26
HIV-1 CAP239.G3 Env: N332A | decreases, 204.60 vs 1096.00
